Assay results reported in US20220275059A1 (HARBOUR ANTIBODIES, published 2022).
Values joined by “and” are separate entries in the source; they are usually repeats but may differ in a detail not shown here. Identical values can stand only once.

Key:
[1] = target: T1, MERS-CoV S S1 subunit (MERS-S1) (MERS-CoV EMC isolate, UniProt K9N5Q8 19-748); experiment: affinity measurement of HCAbs (method not told)
SARS-CoV spike protein = SARS-CoV spike protein (SARS-CoV, UniProt P59594 15-1182); experiment: ELISA on SARS Secto
[2] = target: T2, MERS-S on pseudotyped VSV particles (MERS-S carrying a 16-a.a. cytoplasmic tail truncation) (MERS-CoV, UniProt K9N5Q8 18-1337); experiment: cell-based or functional assay
[3] = target: T2, MERS-S on pseudotyped VSV particles …; experiment: cell-based or functional assay; remark: listed apart in the source
[4] = target: T1, MERS-CoV S S1 subunit (MERS-S1); experiment: ForteBio Octet kinetic measurement (FIG. 3A)
[5] = target: T1, MERS-CoV S S1 subunit (MERS-S1); experiment: ELISA on coated MERS-S1, OD450 [D]
MERS-S1^A domain = target: T3, MERS-S1^A domain (MERS-CoV EMC isolate, UniProt K9N5Q8 19-357); experiment: ELISA on coated MERS-S1^A, OD450 [D]
T3 sequence: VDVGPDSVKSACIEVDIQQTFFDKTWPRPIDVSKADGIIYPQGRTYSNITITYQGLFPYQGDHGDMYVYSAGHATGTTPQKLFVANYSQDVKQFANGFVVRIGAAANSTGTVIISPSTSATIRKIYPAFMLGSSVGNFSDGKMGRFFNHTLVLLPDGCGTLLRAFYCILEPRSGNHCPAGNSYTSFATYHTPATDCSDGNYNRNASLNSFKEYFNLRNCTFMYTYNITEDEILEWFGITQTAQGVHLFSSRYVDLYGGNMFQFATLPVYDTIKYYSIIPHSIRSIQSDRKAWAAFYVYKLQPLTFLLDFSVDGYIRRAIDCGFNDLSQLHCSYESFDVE

[6] = target: MERS-S1^B domain (receptor binding domain) (MERS-CoV EMC isolate, UniProt K9N5Q8 358-588); experiment: ELISA on coated MERS-S1^B, OD450 [D]
[7] = target: T1, MERS-CoV S S1 subunit (MERS-S1); experiment: ForteBio Octet / BLI (FIG. 2F and 3A)
peptide 10 = experiment: ELISA on coated overlapping MERS-S2 peptides, A450 [D00032 Fig. 14(B]
peptide 11 = experiment: as above
[8] = target: MERS-S2 ectodomain (MERS-S2^ecto) (MERS-CoV EMC isolate, UniProt K9N5Q8 752-1262)

B1: 1H5 heavy chain-only antibody (antibody, V domains shown)
VH: EVQLVESGGGLVQPGGSLRLSCAASGFTFSSYWMLWVRQAPGEGLVWVSRIDSDGSNTTYADSVKGRFTVSRDNAKNTLYLQMNSLRAEDTAVYYCARSGYGYAFDIWGQGTMVTVSS
[1]
  Kd: 10.9 nM

B2: 1.12g2 (antibody, V domains shown)
VH: QVQLVESGGGVVQPGRSLRLSCAASGFTFSSYGMHWVRQAPGKGLEWVAVICYDGSDKYYTDSVRGRFTISRDNSKNTLYLQMNSLRVEDTAMYFCARGGWIDDYYYGMDVWGQGTTVTVSS
VL: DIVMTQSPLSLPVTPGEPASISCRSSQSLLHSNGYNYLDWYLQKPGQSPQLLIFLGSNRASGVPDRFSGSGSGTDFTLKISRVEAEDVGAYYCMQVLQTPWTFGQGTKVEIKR
SARS-CoV spike protein
  binding result: no binding (tested: 25.00 (no unit printed))

B3: 7.7g6 (antibody, V domains shown)
VH: QVQLVQTGAEVKKPGSSVKVSCKASGGTFSIYAISWVRQAPRQGLEWMGGIIPIFGTANYAQKFQGRVTITADKSTNTAYMELSRLRSEDTAVYYCAREGDDVLVPTSRGFFDYWGQGTLVTVSS
VL: not shown
[2]
  IC50, neutralization of MERS-S pseudovirus infectivity (H2L2): ~0.00011 µg/mL
  IC50, neutralization of MERS-S pseudovirus infectivity (human IgG1): ~0.02 µg/mL
[3]
  IC50, neutralisation of MERS-S VSV pseudovirus on Vero cells: 0.001 µg/ml and 0.007 nM
[4]
  Kd: ~0.36 nM
[5]
  EC50 (read off the curve): ~0.02 µg/mL
MERS-S1^A domain
  binding result: no binding (tested: about 5x10^5 ng/ml)
[6]
  EC50 (read off the curve): ~0.02 µg/mL

B4: 4.6e10 (antibody, V domains shown)
VH: QVQLVESGGGVVQPGRSLRLSCTASGFTFTYYGLHWVRQAPGKGLEWVAVIWYDGSNQYYADSVQGRFTISRDNSKNTLYLQMNSLRAEDTAVYYCAREGLGAVAGYYFDYWGQGTLVTVSA
VL: DIQMTQSPSSLSASVRDRVTITCRASQIISNYLNWYQQKPGKAPKLLIYAASSLQSGVPSRFSGSGSGTDFTLTISSLQPEDFATYFCQQSYSTPFAFGPGTKVDIKR
[2]
  IC50, MERS-S pseudovirus infection (human IgG1): 0.32 nM
  IC50, neutralization of MERS-S pseudovirus infectivity (H2L2): ~0.0313 µg/mL
  IC50, neutralization of MERS-S pseudovirus infectivity (human IgG1): ~0.07 µg/mL
[3]
  IC50, neutralisation of MERS-S VSV pseudovirus on Vero cells: 0.048 µg/mL
[7]
  Kd: ~0.36 nM
MERS-S1^A domain
  binding result: no binding (tested: about 5x10^5 ng/ml)

B5: 2.6h11 (antibody, V domains shown)
VH: EVQLVESGGGLVQPGRSLRLSCTASGFTFGDYVMSWFRQAPGKGLEWVGFIRSKAHGGTTEYAASVNGRFSISRDDSKTIAYLQMNSLKSEDTAVYYCTWLRNDYYYGMDVWGLGTTVTVSS
VL: DIMMTQSPLSLPVTPGEPASISCRSSQRLLHSNGYSYVDWYLQKPGQSPQLLIYLGSDRASGVPDRFSGSGSGTDFTLKISRVEAEDVGVYYCMQTLQTPWTFGQGTKVEIKR
SARS-CoV spike protein
  binding result: no binding (tested: 25.00 (no unit printed))
Peptide 10
  binding result: no binding
Peptide 11
  binding result: no binding

B6: 1.5d6 (antibody, V domains shown)
VH: QVQLVESGGGVVQPGRSLRLSCAASGFTFSRYGMHWVRQAPGKGLEWVAVIGYDGSNKYYADSVKGRFTISRDNSKNTLSLQMNSLRAEDTAVYYCARGGWNDDYYYGLDVWGQGTTVTVSS
VL: DIVMTQSPLSLPVIPGEPASISCRSSQSLLHSNGYNYLDWYLQKPGQSPQLLIYLGSNRASGVPDRFSGSGSGTDFTLKISIVEAEDAGVYYCMQVLQTPWTFGQGTKVEIKR
SARS-CoV spike protein
  binding result: no binding (tested: 25.00 (no unit printed))

B7: 1.10f3 (antibody, V domains shown)
VH: QVQLVESGGGVVQPGRSLRLSCKASGFTFRGYGMHWVRQAPGKGLEWVTVIWHDASNKYYVDSVKGRFSISRDNSKNTLYLQMNSLRAEDTAVYYCARDAGLSFDIWGQGTMVTVSS
VL: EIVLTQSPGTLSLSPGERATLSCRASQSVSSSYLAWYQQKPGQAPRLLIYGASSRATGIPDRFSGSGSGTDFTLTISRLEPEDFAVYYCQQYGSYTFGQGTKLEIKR
[3]
  IC50, neutralisation of MERS-S VSV pseudovirus on Vero cells: > 10 µg/ml and > 66.7 nM
[4]
  Kd: ~4.8 nM
[5]
  EC50 (read off the curve): ~0.1 µg/mL
MERS-S1^A domain
  EC50 (read off the curve): ~0.07 µg/mL
[6]
  binding result: no binding (tested: about 5x10^5 ng/ml)

B8: 3.5g6 (antibody, V domains shown)
VH: QVQLQQSGPGLVKPSQTLSLTCAISGHSVSSNSADWNWIRQSPSRGLEWLGRTYCRSKCYNDYAVSVKSRITINPDTSKNQFSLQLNPVTPEDTAVYYCARSLGSGTYPFDSWGQGTLVTVSS
VL: DIQMTQSPSSLSASVGDRVTITCRASQRISRFLNWYQQTPGKAPKFLIYAASSLQSGVPSRFSGSGSGTDFTLTISSLQPEDFATYYCQQSYSTPLTFGGGTTVEIKR
[8]
  EC50 (read off the curve): ~0.2 µg/mL
[2]
  IC50, MERS-S pseudovirus (human IgG1): 16.6 nM
SARS-CoV spike protein
  binding result: no binding (tested: 25.00 (no unit printed))
[3]
  IC50, neutralisation of MERS-S VSV pseudovirus on Vero cells: 2.49 µg/mL
[5]
  binding result: no binding (tested: about 5x10^5 ng/ml)
MERS-S1^A domain
  binding result: no binding (tested: about 5x10^5 ng/ml)
[6]
  binding result: no binding (tested: about 5x10^5 ng/ml)

B9: 1G3 heavy chain-only antibody (antibody, V domains shown)
VH: EVQLVESGGGVVQPGRSLRLSCAASGFTFSSYGMHWVRQAPGKGLEWVAVIWYDGSNKYYADSVKGRFTISRDNSKNTLYLQMNSLRAEDTAVYYCARDERIFGVPDAFDIRGQGTMVTVSS
[1]
  Kd: 21.7 nM

B10: 1E10 heavy chain-only antibody (antibody, V domains shown)
VH: EVQLLESGGGWVQPGGSLRLSCAASGFTFSTNAMSWVRQAPGKGLEWVSGISGSGGSTDYADSVKGRFTISRDNSKNTLYLQMNSLRAEDTAVYYCAPRIAVAPDALDIWGQGTMVTVSS
[1]
  Kd: 1 nM

B11: 1.8e5 (antibody, V domains shown)
VH: QVQLQESGPGLVKPSGTLSLTCAVSGGSISSNRWWTWVRRSPGKGLEWIGEIYHSGSTNYNPSLKSRVTISVDRSKNQFSLKLSSVTAADTAVYYCASLTLIWFGEKAFDIWGQGTMVTVSS
VL: EIVMTQSPATLSVSPGERATLSCGASPSVSTNLAWYQQRPGQAPRLLIYGISTRAAGIPARFSGTGSGTEFTLTISSLQSEDFALYYCQQYNNWPYTFGQGTKLEIKR
[2]
  IC50, MERS-S pseudovirus infection (human IgG1): 10 nM
  IC50, neutralization of MERS-S pseudovirus infectivity (H2L2): ~0.0903 µg/mL
  IC50, neutralization of MERS-S pseudovirus infectivity (human IgG1): ~2.59 µg/mL
[3]
  IC50, neutralisation of MERS-S VSV pseudovirus on Vero cells: 1.5 µg/mL
[7]
  Kd: ~0.32 nM
MERS-S1^A domain
  binding result: no binding (tested: about 5x10^5 ng/ml)

B12: 1.13a9 (antibody, V domains shown)
VH: EVQLVESGGGLVQPGGSLRLSCAASGFTFSNYWMTWVRQAPGKGLEWVANIKEDGSEKYYVDSVKGRFTLSRDNAKNSLYLQMNSLRAEDTAVYYCAKEGALLWFGVLRPRAFDIWGQGTMVTVSS
VL: DIVMTQSPLSLPVTPGEPASISCRSSQSLLHSNGYNYLDWYLQNPGQSPHLLIYLASNRASGVPDRFSGSGSGTDFTLKISRVEAADVGVYYCMQALQTPYTFGQGTKLEIKR
SARS-CoV spike protein
  binding result: no binding (tested: 25.00 (no unit printed))
